Common to all, as to experiment: crystal structure
Assay [1] addresses HpiC1 F138S (Fischerella sp. ATCC 43239).
Assay [2] concerns the target HpiC1 W73M/K132M selenomethionine derivative (Fischerella sp. ATCC 43239).
For assay [3], the target named is HpiC1 Y101F (Fischerella sp. ATCC 43239).
Assay [4] concerns the target HpiC1 Y101F/F138S (Fischerella sp. ATCC 43239).
For assay [5], the target named is HpiC1 Y101S (Fischerella sp. ATCC 43239).
Assay [6] addresses HpiC1 native (Fischerella sp. ATCC 43239).

A word on the stoichiometry N: it is the number of molecules, sites or subunits per partner or assembly. Substance HpiC1 F138S (enzyme) yielded a stoichiometry N in assay [1] of 2.
For “HpiC1 W73M/K132M selenomethionine derivative (enzyme)”, the stoichiometry N in assay [2] was found to be 2.
Regarding HpiC1 Y101F (enzyme), the stoichiometry N in assay [3] was 2.
HpiC1 Y101F/F138S (enzyme) showed a stoichiometry N in assay [4] of 2.
In assay [5], HpiC1 Y101S (enzyme) had a stoichiometry N of 2.
For HpiC1 native (enzyme), in assay [6], the stoichiometry N was 2.

Values taken from paper doi:10.1101/173674.
